Assay results as given in PMC10901774, “Mirror-image ligand discovery enabled by single-shot fast-flow synthesis of D-proteins” (Nature Communications, 2024).

Details: pH 7.4
Protocol: For protein targets with no known binding partners and no available activity assays (ERG and IRAK2), we recorded circular dichroism (CD) spectra and compared them to recombinantly derived material.
ERG and IRAK2 Circular Dichroism
Before analysis, all proteins were exchanged into CD buffer (10 mM KP i, 5% glycerol v/v, pH 7.4).
Fast protein liquid chromatography (FPLC) purification was performed using GE Life Sciences
columns on an ÄKTA Pure FPLC system. The ÄKTA Pure, FPLC columns, and all buffers were
stored and subsequently used in a cold room maintained at 4 °C. HiTrap™ Desalting 5 mL: Before
desalting, the column was equilibrated with 20 mL of the CD buffer at 2 mL/min or until the
conductance reading from the ÄKTA Pure stabilizes, whichever is the greater volume. Up to 1.5
mL of sample was loaded into the column using a syringe fitted with a compatible male-end screw
tip, and then the loaded column was attached to the ÄKTA Pure. An isocratic flow of buffer (2 CV) […]
protein solution was determined with Method 1.6.1. […]
mg/mL with additions of CD buffer. All CD spectra were recorded on an AVIV Model 420 Circular […]
Before all readings, cuvettes were cleaned with Hellmanex™ 3 concentrate according to
manufacturer directions. Far circular dichroism spectra were recorded as the average of three […]
with 2 nm bandwidth and 8 second averaging time. Spectra were recorded between 0 and 110 […]

B1: Recombinant ERG: ERG (115-208) recombinantly expressed in E. coli (protein, UniProt P11308 115-208, looked up, fragment)
chain: PPNMTTNERRVIVPADPTLWSTDHVRQWLEWAVKEYGLPDVNILLFQNIDGKELCKMTKDDFQRLTPSYNADILLSHLHYLRETPLPHLTSDDV
TM (melting temperature), ERG: 71.7±0.8 ºC
